The text below walks through data of publication PMC6423718.

This test concerns the target bZIP domain of chicken CREB3 (chCREB3), Residues 206-280, His-tagged (chicken). As to the kind of experiment: crystal structure; DNA-free form; sitting-drop vapor diffusion at 4°C, 43% v/v MPD, 100 mM tri-sodium citrate pH 5.6, 10 mM magnesium chloride; molecular replacement; 3.95 Å.

The term stoichiometry N denotes a count of units in the complex or per binding partner. As for “bZIP domain of chicken CREB3 (chCREB3), Residues 206-280, His-tagged (domain or fragment)”, the stoichiometry N was found to be 2.
